Assay results: patent publication US20220073608A1 (JIANGSU HUAIYU PHARMACEUTICAL, published 2022)
Where a chain is given by its changes, count along the chain named.

T1: mouse SEMA4D, full length, on CHO-K1 cells (CHO-K1 mSEMA4D) (mouse, UniProt O09126 24-861)
T1 construct: whole, on cells; also called murine SEMA4D recombinant cells
T1 sequence (looked up): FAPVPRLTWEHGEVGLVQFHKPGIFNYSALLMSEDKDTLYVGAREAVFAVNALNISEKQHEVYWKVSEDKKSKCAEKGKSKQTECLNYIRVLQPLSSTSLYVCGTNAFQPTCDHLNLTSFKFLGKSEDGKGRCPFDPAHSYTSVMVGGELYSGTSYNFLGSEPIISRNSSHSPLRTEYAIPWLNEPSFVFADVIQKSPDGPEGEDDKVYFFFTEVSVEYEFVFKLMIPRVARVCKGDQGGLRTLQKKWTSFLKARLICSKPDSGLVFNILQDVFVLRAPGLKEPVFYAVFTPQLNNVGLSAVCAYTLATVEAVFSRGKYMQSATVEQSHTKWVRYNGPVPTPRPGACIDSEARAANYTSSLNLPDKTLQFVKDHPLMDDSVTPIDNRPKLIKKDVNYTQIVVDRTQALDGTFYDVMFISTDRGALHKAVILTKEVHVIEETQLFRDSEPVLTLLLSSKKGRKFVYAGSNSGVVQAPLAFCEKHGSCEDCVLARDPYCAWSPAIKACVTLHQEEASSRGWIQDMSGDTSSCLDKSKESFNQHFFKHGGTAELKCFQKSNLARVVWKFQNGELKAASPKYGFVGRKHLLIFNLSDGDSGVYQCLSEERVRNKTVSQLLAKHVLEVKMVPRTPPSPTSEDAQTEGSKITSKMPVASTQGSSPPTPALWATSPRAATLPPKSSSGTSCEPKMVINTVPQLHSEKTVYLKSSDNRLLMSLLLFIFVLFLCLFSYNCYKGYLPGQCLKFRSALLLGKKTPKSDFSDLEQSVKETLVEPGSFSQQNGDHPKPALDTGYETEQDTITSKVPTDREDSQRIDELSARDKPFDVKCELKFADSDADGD

T2: hSEMA4D ECD-His (His-tagged human SEMA4D protein extracellular domain, Met22-Arg734) (human, UniProt Q92854 22-734)
T2 construct: Expressed in CHO-S cells, purified on Ni column; also called protein immunogen; immunogen A; not shown: His tag of the pCP vector
T2 sequence: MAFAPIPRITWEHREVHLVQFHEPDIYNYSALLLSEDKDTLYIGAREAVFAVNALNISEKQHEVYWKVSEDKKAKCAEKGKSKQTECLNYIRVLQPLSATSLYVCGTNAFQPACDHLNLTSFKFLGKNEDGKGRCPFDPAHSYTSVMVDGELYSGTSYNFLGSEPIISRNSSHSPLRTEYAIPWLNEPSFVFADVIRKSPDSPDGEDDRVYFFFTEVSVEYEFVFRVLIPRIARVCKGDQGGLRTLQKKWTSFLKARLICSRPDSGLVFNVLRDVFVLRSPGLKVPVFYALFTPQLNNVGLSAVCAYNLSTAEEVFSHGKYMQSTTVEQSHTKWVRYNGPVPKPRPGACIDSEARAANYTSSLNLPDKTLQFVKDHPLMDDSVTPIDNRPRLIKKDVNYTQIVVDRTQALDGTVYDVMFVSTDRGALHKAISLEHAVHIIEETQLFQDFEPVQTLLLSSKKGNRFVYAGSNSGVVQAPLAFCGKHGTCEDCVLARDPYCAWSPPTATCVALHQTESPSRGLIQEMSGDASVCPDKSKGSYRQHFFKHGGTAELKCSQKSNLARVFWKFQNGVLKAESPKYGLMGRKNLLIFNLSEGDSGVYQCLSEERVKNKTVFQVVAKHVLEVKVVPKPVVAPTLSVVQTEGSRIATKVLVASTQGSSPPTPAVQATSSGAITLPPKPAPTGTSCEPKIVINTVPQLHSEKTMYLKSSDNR

B1: 32C8F10 (antibody, V domains shown)
VH: EVQLQQSGAELVRPGASVKLSCTASGFNIKDEYIHWVKQRPEQGLEWIGWIDPANGHTEYASRFQAKATITADTSSNTAYLQLSSLTSEDTAVYYCTTGDYDGFAYWGQGTLVTVST
VL: QIVLTQSPAIMSASPGEKVTISCSARSSVSYMYWYQQKPGSSPKPWIYRTSNLASGVPARFSGSGSGTSYSLTISSMEAEDAATYYCQHYHTYPYTFGGGTKLEIK
notes: Mouse monoclonal antibody purified from hybridoma supernatant on protein A
B2: 31C11G2 (antibody, V domains shown)
VH: B1 VH with A105V
VL: B1 VL with S22F
notes: as for B1
B3: 31G10C5 (antibody, V domains shown)
VH: B1 VH with E32D, T58I, R63N, A105T
VL: B1 VL
notes: as for B1
B4: 37C4F7 (antibody, V domains shown)
VH: EFQLQQSGPEVVKPGASVKISCKASGYSFTDYNMNWMKQSKGKSLEWIGVINPNYGTTTYNQNFKGKATLTVDQSSSTAYMQLNSLTSEDSAVYYCARDMYYVYAYYTMDYWGQGTSVTVSS
VL: DVVMTQTPLSLPVSLGDQASISCRSSQSLVHSNGHTYLHWYLQRPGQSPTLLIYKVSNRFSGVPDRFSGSGSGTDFTLKISRVEAEDLGVYFCSQGTHVPWTFGGGTKLEIK
notes: as for B1
B5: 38H2E3 (antibody, V domains shown)
VH: B4 VH with N52S, N54D, G66D, R98K, Q114H
VL: B4 VL with F67V, W101R
notes: as for B1
B6: 37F11F9 (antibody, V domains shown)
VH: EVQLQQSGPVLVKPGASVKMSCKASGYTFTDYYMNWVKQSHGKSLEWIGLINPYSGGSTFNQKFKAKATLTVDKSSSSAYMDLNSLTSEDSAVYYCARVGDGYYGVTHGMDYWGQGTSVTVSS
VL: DIVMTPSQKFMSTTVGDRVSITCKASQNVGTAVAWYQQKPGQSPTILIYSASNRYTGVPDRFTGSGSGTDFTLTISNMKSEDLADYFCQQYYIYPFTFAAGTKLELK
notes: as for B1
B7: 42B7G2 (antibody, V domains shown)
VH: QVQLQQSGAELARPGASVKLSCKASGYTFTDYGISWVKQRTGQGLEWIGEIYLRNDNSYYNEKFKGKATLTADKSSNTAYMELRSLTSEDSAVYFCARWGDHGNNYEDAMDYWGQGTSVTVSS
VL: DIVLTQSPASLAMSLGKRATISCRASESVSIIGSNLIHWYQQKPGQPPKLLIYHASNLETGVPARFSGSGSRTDFTLTIDPVEEDDVAIYYCLQSRKVPYTFGGGTKLEIK
notes: as for B1

Target: T1, mouse SEMA4D, full length, on CHO-K1 …
Test: FACS, CHO-K1 mSEMA4D cells; Ab 13.3 nM
Protocol: After the cells were counted, they were diluted with PBS to 2×10⁶ cells per milliliter. After washing, 100 μL of diluted and purified leading antibodies was added to each well and the plate was incubated for 1 hour on ice. […] Cells were washed 2 times by centrifugation with FACS buffer. The cells were suspended with 200 μL of FACS buffer, FACS (FACS Verse, purchased from BD) was used to detect and analyze the results.

Row | Binder | MFI
1 | B1 | 30.6
2 | B2 | 31.3
3 | B3 | 30.9
4 | B4 | 29.8
5 | B5 | 31
6 | B6 | 30.1
7 | B7 | 30.7

Target: T2, hSEMA4D ECD-His (His-tagged human …)
Test: ELISA, coated hSEMA4D ECD-His; Ab 6.67 nM
Protocol: First, hSEMA4D ECD-His was diluted with PBS to a final concentration of 1.0 μg/mL, and then was added to a 96-well ELISA plate, 100 μL per well, sealed with plastic film and incubated overnight at 4° C. On the next day, the plate was washed with a plate washing solution, that is, PBS buffer containing 0.05% (v/v) Tween20, for 4 times, and added with blocking solution, that is, PBS buffer containing 0.05% (v/v) Tween20 and 2% (w/w) BSA, blocked at 37° C. for 1 hour. The blocking solution was poured out and the plate was washed 4 times with the plate washing solution. 100 μL of the purified leading antibodies obtained in Examples 1 and 2 was added to each well. After incubation at 37° C. for 1 hour, the plate was washed 4 times with a plate washing solution. 100 μL of horseradish peroxidase (HRP) labeled secondary antibody (purchased from Sigma) was added at a dilution of 1:10000 to each well, and the plate was incubated at 37° C. for 1 hour, and washed 4 times with a plate washing solution. 100 μL TMB substrate was added to each well, and the plate was incubated at room temperature for 5 minutes, and added with 100 μL stop solution (1.0N HCl) to each well. A microplate reader (SpectraMax M5e, purchased from Molecular Device) was used to read the A450 nm value. […] Wherein, the data in the table was the OD450 nm value.

Row | Binder | OD450 nm
8 | B1 | 2.32
9 | B2 | 1.74
10 | B3 | 1.59
11 | B4 | 1.19
12 | B5 | 1.46
13 | B6 | 1.54
14 | B7 | 2.07
